For two substances, MMP-1 activity on fluorogenic peptide substrate (% MMP-1 activity) and MMP-13 activity on fluorogenic peptide substrate (% MMP-13 activity) results are on record in patent US7993849B2.

The target in one experiment is human MMP-1 (human) (UniProt P03956).
The next experiment has as its target rat MMP-13 (rat) (UniProt P23097).

Sequence of rat TIMP-1 (P30120 24-217 limits assumed): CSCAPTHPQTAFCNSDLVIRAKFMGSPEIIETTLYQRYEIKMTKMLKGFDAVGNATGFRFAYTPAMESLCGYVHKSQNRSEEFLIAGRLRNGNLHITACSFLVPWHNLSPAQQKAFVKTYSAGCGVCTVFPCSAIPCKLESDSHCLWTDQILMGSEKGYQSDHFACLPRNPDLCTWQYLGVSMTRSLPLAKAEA

For human TIMP-1, the MMP-1 activity on fluorogenic peptide substrate (% MMP-1 activity) with human MMP-1 (human) was determined as 27. As to rat TIMP-1, the MMP-13 activity on fluorogenic peptide substrate (% MMP-13 activity) with rat MMP-13 (rat) came to 20.
